Reference: paper PMC10959120

Tests used:
[1] = molecular target: MADD (DENN/MADD, RAB3-GEP) (UniProt Q8WXG6); assay: GFP-Trap co-IP, HA immunoblot; conditions: reference: wild type; sites T86
RAB-GDI1 = RAB-GDI1 (UniProt P31150); assay: GFP-Trap co-IP, immunoblot; conditions: reference: wild type; sites T86

## RAB3A (from UniProt P20336) T86A
[1]
  binding against the reference: stronger
RAB-GDI1
  binding against the reference: stronger
